Data published in patent publication US20250161505A1, “CD206 Targeted Peptide Conjugates and Methods of Using the Same” (Riptide Bioscience, Inc., priority 2022, published 2025).
Values belong to the molecule of their own block, whether it stands above or below them. Where a SMILES comes first, the peptide text is derived from it. The star is where a group is joined. DOTA = O=C(O)CN1CCN(CC(=O)O)CCN(CC(=O)*)CCN(CC(=O)O)CC1

How the values were obtained:
in vivo [1] = test: in vivo; parameters: species or system BALB/c mice; details: BALB/c, mouse, total radioactivity, average percent injected dose per gram of organ
Description: 4T1 cells, a mouse breast cancer cell line (ATCC), and CT26 cells, a mouse colon carcinoma cell line (ATCC), were cultured in RPMI-1640 medium (ATCC) with 10 percent fetal bovine serum and 0.1 percent gentamicin at 37 degrees Celsius with 5 percent CO2. Wild-type BALB/c mice (Charles River) were used for syngeneic 4T1 and CT26 tumor models and were subcutaneously injected in the shoulder with 200,000 4T1 cells and 2×10^6 CT26 cells (with Matrigel). Tumors were allowed to grow for 10 days. Following the [^68Ga]832c imaging studies, animals were euthanized, and organs of interest removed and assessed for radioactivity. For all biodistribution studies, specific uptake for each tissue was measured with background and decay correction and expressed as percent injected dose per gram of tissue (% ID/g) as calculated by normalization to the total activity injected.

syngeneic CT26 tumors = test: in vivo; parameters: species or system BALB/c mice; details: mouse
Description: (§1) 4T1 cells, a mouse breast cancer cell line (ATCC), and CT26 cells, a mouse colon carcinoma cell line (ATCC), were cultured in RPMI-1640 medium (ATCC) with 10 percent fetal bovine serum and 0.1 percent gentamicin at 37 degrees Celsius with 5 percent CO2. Wild-type BALB/c mice (Charles River) were used for syngeneic 4T1 and CT26 tumor models and were subcutaneously injected in the shoulder with 200,000 4T1 cells and 2×10^6 CT26 cells (with Matrigel). Tumors were allowed to grow for 10 days. Dynamic imaging studies were performed with a GNEXT small animal PET/CT (SOFIE). […] After 45 minutes, a high-resolution CT scan was obtained for anatomical reference. […] After 1 hour, a high-resolution CT scan was obtained for anatomical reference. During imaging, mice were anesthetized with 2.5 percent isoflurane/oxygen. The PET data was reconstructed into 5-minute time frames. Regions of interest (ROI) were drawn based on the CT anatomical guidelines. The mean standardized uptake value (SUV) was quantified using VivoQuant software with the equation: Where C is the activity concentration in tissue, dose is the injected dose, and weight is the body weight of the mouse. Statistical analysis was conducted with Graphpad Prism software.

in vivo [2] = test: in vivo; parameters: species or system BALB/c mice; details: BALB/c, mouse, total radioactivity
Description: as §1

syngeneic 4T1 tumors = test: in vivo; parameters: species or system BALB/c mice; details: mouse
Description: as §1

[3] = format: in vitro ADME; details: mouse, serum
Description: Labeling of RP-832 and MART-1 with ^68Ga was accomplished by adding 10 μg of peptide to 500 μCi of ^68GaCl3 in 50 μL of 1 M sodium acetate buffer (pH 4.5). The reactions were incubated in a thermomixer at 95 degrees Celsius for 14 minutes with 300 rpm agitation. Incorporation of the ^68Ga was determined by radio-High Performance Liquid Chromatography (HPLC) immediately after the reaction. Analysis was performed using a C-18 column. The gradient elution system utilized mobile phase A (100% water 0.1% TFA) and mobile phase C (Acetonitrile containing 0.1% TFA) with a flow rate of 1.0 mL/min. The gradient started with 100% A and was increased to 100% C over 6.67 minutes and then returned to the initial gradient conditions within 4.66 minutes. […] The mixtures were incubated at 37 degrees Celsius with 400 rpm agitation up to three hours. Aliquots were removed at different time points (30 minutes, 1, 2, 3 h) to evaluate stability and analyzed using radio-HPLC as described above. All experiments were completed in triplicate.

Recombinant human CD206 = target: T1, Recombinant human CD206 (Homo sapiens, UniProt P22897); test: Surface plasmon resonance (Biacore T200), immobilized CD206; format: binding; details: all concentrations (0.5 uM-10 uM)
T1 construct: purchased R&D systems 2534-MR-050
T1 sequence (P22897 19-1456): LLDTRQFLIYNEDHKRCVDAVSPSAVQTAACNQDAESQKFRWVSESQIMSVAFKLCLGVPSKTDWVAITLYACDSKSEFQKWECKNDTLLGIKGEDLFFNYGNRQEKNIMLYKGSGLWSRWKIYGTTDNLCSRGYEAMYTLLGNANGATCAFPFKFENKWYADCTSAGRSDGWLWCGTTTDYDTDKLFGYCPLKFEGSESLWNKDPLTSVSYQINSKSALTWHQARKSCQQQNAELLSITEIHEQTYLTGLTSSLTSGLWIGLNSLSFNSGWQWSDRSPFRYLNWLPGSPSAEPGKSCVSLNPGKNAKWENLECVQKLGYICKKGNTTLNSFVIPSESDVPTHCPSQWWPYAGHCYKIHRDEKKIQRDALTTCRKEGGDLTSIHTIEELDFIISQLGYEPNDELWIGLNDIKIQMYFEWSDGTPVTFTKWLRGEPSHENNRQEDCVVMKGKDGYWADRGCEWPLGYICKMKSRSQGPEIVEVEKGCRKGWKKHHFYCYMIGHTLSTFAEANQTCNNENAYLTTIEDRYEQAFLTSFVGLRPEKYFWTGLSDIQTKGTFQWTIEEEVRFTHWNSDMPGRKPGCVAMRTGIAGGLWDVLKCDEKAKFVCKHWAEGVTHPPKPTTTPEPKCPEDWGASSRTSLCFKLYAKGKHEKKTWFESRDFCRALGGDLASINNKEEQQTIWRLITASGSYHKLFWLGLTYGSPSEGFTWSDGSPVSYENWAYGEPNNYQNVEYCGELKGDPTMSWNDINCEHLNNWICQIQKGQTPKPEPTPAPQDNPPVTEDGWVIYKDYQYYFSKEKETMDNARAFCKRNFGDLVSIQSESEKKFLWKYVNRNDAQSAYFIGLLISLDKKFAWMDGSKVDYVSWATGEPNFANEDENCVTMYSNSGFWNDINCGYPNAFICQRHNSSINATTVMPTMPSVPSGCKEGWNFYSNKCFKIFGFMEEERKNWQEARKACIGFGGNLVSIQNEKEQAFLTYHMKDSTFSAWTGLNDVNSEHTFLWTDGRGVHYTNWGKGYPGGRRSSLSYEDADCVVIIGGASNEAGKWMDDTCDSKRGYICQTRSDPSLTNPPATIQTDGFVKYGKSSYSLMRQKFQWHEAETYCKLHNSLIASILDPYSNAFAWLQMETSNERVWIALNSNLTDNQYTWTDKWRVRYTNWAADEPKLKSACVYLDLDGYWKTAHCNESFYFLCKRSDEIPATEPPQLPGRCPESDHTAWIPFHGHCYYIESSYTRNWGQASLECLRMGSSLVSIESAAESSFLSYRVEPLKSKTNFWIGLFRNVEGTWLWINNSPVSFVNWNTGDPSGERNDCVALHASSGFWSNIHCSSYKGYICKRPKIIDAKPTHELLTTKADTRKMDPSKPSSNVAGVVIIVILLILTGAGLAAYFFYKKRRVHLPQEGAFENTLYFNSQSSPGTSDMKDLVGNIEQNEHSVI
Description: All SPR experiments were carried out using a Biacore T200 Biosensor instrument (GE Health Life Sciences, Piscataway, NJ). CM5 sensor chips, amine coupling reagents, and running buffers used in the binding analysis were obtained from Cytivalifesciences (Marlborough, MA).
Recombinant human CD206 was purchased from R&D systems (Catalog #2534-MR-050). CD206 protein was immobilized onto a CM5 sensor chip surface via standard amine coupling chemistry, using HBS-P+ running buffer (10 mM HEPES, [pH 7.4], 150 mM NaCl, and 0.05% Surfactant 20) at 25° C., as per manufacturer recommendation (Cytiva, Marlborough, MA). Briefly, carboxyl groups on the sensor chip flow cell surface (flow cell 2) were activated by injecting an equal mixture of 200 mM N-hydroxysuccinimide (NHS) and 50 mM 1-ethyl-3-(3-dimethylaminopropyl) carbodiimide hydrochloride) (EDC) at a flow rate of 10 μl/min. CD206 (25 μg/mL) was then diluted in 10 mM sodium acetate buffer pH 5.0 and injected over the surface at a flow rate of 10 μl/min until a level of 5000 resonance units (RU) was reached. This was followed by a 7 min injection of 1 M ethanolamine (pH 8) to block excessive reactive esters and wash away any non-covalently bound CD206. A blank flow cell surface (flow cell 1) was similarly activated with no protein injection, and used as a reference to subtract non-specific binding and bulk refractive index. […]

[4] = tested on: PDL1 unresponsive melanoma; details: PDL1 unresponsive melanoma murine models; cited from earlier work
[5] = tested on: tumor associated macrophages (TAMs); details: cited from earlier work
CD206 macrophages = details: through interactions with CD206 macrophages; cited from earlier work

Molecule: N=C(N)NCCC[C@H](NC(=O)[C@H](Cc1c[nH]c2ccccc12)NC(=O)[C@H](CCCCN)NC(=O)[C@H](Cc1ccccc1)NC(=O)CNC(=O)CNC(=O)[C@H](Cc1ccccc1)NC(=O)[C@H](CCCCN)NC(=O)[C@H](Cc1c[nH]c2ccccc12)NC(=O)[C@H](CCCNC(=N)N)NC(=O)CN1CCN(CC(=O)O)CCN(CC(=O)O)CCN(CC(=O)O)CC1)C(=O)O [[^68Ga]RP832c, metal not drawn] ({DOTA}-RWKFGGFKWR-OH)
tissue uptake at 1.5 h (in vivo [1]; 15 uCi, liver): 1.66 %ID/g | tissue uptake at 1.5 h (in vivo [1]; 15 uCi, spleen): 0.67 %ID/g | tissue uptake at 1.5 h (in vivo [1]; 15 uCi, tumor): 0.4 %ID/g | tissue uptake at 1.5 h (in vivo [1]; liver): 1.46 %ID/g | tissue uptake at 1.5 h (in vivo [1]; spleen): 0.91 %ID/g | tissue uptake at 1.5 h (in vivo [1]; tumor): 0.57 %ID/g | highest signal in maximum intensity projections (MIPs) (syngeneic CT26 tumors): kidneys and bladder | SUV at 0.25 h (in vivo [2]): 0.25 SUV | SUV at 40 min (in vivo [2]): 0.5 SUV | highest signal in MIP images (syngeneic 4T1 tumors): bladder | free ^68Ga (^68Ga remained complexed) [3]: less than one percent free ^68Ga

binding sensorgram (Recombinant human CD206): no binding
Molecule: DOTA-MART-1: MART-1 peptide with DOTA, not radiolabeled, control in SPR

Molecule: RWKFGGFKWR [RP-832c]
effect on tumor resistance [4]: shown promise in inhibiting tumor resistance | effect on population of tumor associated macrophages [5]: shift the population of tumor associated macrophages (TAMs) from M2 (pro-tumor) towards a M1 phenotype (anti-tumor) | effect on bleomycin induced pulmonary fibrosis (CD206 macrophages): inhibit bleomycin induced pulmonary fibrosis
